For test [1], the target named is T1, Human MerTK on hMerTK-expressing cells (human, UniProt Q12866 21-999).
T1 sequence: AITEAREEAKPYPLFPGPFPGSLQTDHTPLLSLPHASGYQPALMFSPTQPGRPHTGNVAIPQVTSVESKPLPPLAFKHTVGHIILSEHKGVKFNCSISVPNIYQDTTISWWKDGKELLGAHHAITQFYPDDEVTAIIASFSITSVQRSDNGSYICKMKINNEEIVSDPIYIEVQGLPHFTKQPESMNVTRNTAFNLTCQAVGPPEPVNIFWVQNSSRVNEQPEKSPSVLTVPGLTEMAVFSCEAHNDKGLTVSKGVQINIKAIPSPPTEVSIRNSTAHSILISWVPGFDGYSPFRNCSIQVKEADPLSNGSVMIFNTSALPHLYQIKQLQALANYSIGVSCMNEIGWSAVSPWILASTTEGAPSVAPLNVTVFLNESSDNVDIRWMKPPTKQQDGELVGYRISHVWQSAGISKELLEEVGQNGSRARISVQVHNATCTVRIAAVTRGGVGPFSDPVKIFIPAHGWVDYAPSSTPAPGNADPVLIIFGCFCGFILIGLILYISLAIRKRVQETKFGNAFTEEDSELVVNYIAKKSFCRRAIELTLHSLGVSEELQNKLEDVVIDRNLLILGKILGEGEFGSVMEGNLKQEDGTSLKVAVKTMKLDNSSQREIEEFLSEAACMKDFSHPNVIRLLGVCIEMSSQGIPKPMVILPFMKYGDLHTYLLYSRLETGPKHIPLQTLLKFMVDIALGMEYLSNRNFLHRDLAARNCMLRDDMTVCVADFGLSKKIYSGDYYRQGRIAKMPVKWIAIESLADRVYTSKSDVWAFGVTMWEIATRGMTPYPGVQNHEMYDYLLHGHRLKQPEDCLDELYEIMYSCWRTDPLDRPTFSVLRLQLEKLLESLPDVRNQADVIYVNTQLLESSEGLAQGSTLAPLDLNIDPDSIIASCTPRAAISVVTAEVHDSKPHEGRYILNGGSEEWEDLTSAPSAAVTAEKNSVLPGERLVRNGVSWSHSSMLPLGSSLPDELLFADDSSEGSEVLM
The test can be described thus: cell-based or functional assay.

In test [2] the target is T2, Recombinant soluble extracellular domain of mouse MerTK (mouse, UniProt Q60805 19-497).
T2 construct: SPR analyte; also called mMerTK
T2 sequence: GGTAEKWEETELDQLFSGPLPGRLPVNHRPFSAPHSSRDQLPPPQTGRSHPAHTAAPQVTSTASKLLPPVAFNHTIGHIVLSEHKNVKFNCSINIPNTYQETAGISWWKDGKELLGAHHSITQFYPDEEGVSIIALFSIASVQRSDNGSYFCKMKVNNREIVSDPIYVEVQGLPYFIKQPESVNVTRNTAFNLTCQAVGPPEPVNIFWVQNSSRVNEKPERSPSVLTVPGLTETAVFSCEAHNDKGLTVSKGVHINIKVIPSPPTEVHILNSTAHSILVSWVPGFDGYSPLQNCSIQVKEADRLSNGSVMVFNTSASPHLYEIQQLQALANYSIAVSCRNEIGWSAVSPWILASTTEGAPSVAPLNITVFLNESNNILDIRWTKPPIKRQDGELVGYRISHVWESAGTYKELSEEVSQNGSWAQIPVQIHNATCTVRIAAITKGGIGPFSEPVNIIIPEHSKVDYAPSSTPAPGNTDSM
Kind of test: SPR, mAb captured, soluble MerTK ECD as analyte, 37 C. Here is the method: (§1) MerTK Abs were captured on the chip. Recombinant soluble forms of the extracellular domains of human, cynomolgus monkey, and mouse MerTK polypeptide were injected as analytes at multiple concentrations each. The resulting sensorgrams were double-referenced and fitted to a 1:1 Langmuir binding model with mass transport.
A general note: Surface plasmon resonance follows binding to a sensor surface in real time, without labels.

For test [3], the target named is T3, Recombinant soluble extracellular domain of cynomolgus monkey MerTK (cynomolgus monkey, UniProt Q12866 21-505 (human entry)).
T3 construct: SPR analyte; also called cMerTK; Cynomolgus MerTK
T3 chain: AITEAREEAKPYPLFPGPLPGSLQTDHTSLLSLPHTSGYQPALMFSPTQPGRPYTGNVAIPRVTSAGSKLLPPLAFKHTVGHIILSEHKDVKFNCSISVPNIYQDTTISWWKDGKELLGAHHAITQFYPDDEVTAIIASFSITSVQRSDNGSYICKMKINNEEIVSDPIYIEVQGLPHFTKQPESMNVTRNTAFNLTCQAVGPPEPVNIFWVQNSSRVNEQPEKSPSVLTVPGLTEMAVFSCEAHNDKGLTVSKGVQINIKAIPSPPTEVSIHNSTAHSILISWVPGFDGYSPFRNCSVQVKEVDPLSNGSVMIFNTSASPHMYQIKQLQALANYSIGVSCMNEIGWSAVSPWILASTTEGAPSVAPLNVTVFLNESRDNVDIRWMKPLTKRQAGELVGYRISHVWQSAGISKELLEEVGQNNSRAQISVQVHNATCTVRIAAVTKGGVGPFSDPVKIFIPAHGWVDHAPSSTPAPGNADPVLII
Described as above. Here is the method: as §1

Test [4] deals with T4, Recombinant soluble extracellular domain of human MerTK (human, UniProt Q12866 21-505).
T4 construct: SPR analyte; also called hMerTK
T4 sequence: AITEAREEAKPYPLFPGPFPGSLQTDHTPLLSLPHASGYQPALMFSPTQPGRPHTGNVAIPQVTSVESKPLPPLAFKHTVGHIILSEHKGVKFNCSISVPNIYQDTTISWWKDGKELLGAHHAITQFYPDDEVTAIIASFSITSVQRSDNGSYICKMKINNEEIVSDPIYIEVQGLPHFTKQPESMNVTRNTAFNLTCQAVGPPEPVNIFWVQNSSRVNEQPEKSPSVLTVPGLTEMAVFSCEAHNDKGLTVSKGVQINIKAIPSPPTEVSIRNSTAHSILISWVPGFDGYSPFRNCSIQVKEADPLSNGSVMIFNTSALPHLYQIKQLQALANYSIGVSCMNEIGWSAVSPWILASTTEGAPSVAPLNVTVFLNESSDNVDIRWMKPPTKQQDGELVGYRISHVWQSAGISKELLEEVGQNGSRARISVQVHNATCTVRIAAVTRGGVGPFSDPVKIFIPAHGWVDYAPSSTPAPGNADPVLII
Described as above. Here is the method: as §1

Test [5] concerns the target T5, Mouse MerTK on mMerTK-expressing cells (mouse, UniProt Q60805 19-994).
T5 sequence: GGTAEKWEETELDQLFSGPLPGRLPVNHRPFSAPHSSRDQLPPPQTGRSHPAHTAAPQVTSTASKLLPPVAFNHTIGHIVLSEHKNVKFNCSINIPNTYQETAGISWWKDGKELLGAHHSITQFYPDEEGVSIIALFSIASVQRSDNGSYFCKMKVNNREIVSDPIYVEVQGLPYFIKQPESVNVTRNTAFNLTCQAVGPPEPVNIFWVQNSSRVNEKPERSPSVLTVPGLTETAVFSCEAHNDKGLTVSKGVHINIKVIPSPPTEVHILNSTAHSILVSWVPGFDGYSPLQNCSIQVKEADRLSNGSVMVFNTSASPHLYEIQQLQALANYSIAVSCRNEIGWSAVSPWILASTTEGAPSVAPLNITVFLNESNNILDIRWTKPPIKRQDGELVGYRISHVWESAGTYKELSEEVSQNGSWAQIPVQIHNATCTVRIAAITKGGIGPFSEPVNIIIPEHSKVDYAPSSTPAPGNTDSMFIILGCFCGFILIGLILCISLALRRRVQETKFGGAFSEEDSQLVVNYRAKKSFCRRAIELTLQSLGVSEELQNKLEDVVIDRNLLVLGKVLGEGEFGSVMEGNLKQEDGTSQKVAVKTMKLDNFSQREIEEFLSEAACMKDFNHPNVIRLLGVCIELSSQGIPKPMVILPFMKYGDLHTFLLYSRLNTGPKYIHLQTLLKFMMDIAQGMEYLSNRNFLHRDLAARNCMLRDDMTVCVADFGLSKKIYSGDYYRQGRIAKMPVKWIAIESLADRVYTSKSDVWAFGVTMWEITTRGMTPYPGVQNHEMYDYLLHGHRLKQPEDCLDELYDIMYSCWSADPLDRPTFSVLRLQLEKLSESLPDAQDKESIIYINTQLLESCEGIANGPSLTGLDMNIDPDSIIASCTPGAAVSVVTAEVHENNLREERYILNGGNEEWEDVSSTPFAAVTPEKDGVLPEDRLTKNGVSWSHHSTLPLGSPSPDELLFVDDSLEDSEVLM
The test can be described thus: cell-based or functional assay.

For test [6], the target named is T2, Recombinant soluble extracellular …. Kind of test: SPR, soluble MerTK ECD; format for mouse mAbs not detailed.
In test [7] the target is T3, Recombinant soluble extracellular …. Described as above.
Test [8] has as its target T4, Recombinant soluble extracellular …. The test is described as above.

B1: Humanized MAb 2L105 (antibody, human IgG1, lambda, V domains shown)
VH: QVTLKESGPVLVKPTETLTLTCTVSGISLSSFAISWIRQPPGKALEWLAVIWTGGGTDYNSALKSRLTISKDTSKSQVVLTMTNMDPVDTATYYCASHWYLDVWGQGTTVTVSS
VL: QTVVTQEPSFSVSPGGTVTLTCRSSTGAVSTSNYANWVQQTPGQAPRGLIGGANSRAPGIPDRFSGSILGNKAALTITGAQADDESDYYCALWFSNHWVFGGGTKLTVLG
notes: Humanized variant of moMAb 2D9, Bin 2
In general, Kd refers to the equilibrium constant for the complex coming apart. What is called koff is the rate constant with which the complex falls apart. The kon is the second-order rate constant of association. Turning to B1, the “Signaling Assay, hMerTK with Gas6, pSTAT1 IC50 (nM)” value (“Signaling Assay, hMerTK with Gas6” for short) in test [1] worked out at 1.37 nM. Moreover, in test [2], the Kd is 13.7 nM, the off-rate (koff) was 0.00123 s⁻¹, the kon amounted to 89500 M⁻¹ s⁻¹ and the t1/2 worked out at 9.4 min. Also, in test [3], the dissociation constant (Kd) came out at 27 nM, the koff came out at 0.00151 s⁻¹, the kon was found to be 55900 M⁻¹ s⁻¹ and the t1/2 amounted to 7.7 min. In test [4], the equilibrium dissociation constant (Kd) is 24.8 nM, the dissociation rate constant (koff) is 0.00146 s⁻¹, the kon was found to be 58900 M⁻¹ s⁻¹ and the t1/2 is 7.9 min.

B2: HuMAb 10K11 (antibody, human IgG1, kappa, V domains shown)
VH: QLQLQESGPGLVKPSETLSLTCAVSGYSISSDYSWGWIRQPPGKGLEWIGSIYHSGNTYFNPSLKSRVTISVDTSKNQFSLKLSSVTAADTAVYYCARDKSYYFGPGSMDVWGQGTTVTVSS
VL: AIQLTQSPSSLSASVGDRVTITCRASQGISSALAWYQQKPGKAPKLLIYDASSLESGVPSRFSGSGSGTDFTLTISSLQPEDFATYYCQQFKSYLTFGQGTRLEIKR
notes: Human anti-hMerTK mAb, Bin 1
Regarding B2, in test [1], the “Inhibition of Efferocytosis IC50” value was 0.169 nM; the “Signaling Assay, hMerTK with Gas6” value is 1.13 nM; the “Signaling Assay, hMerTK without Gas6, pSTAT1 IC50 (nM)” value is greater than 100 nM. In test [3], the Kd is 22.5 nM, the koff amounted to 0.00235 s⁻¹, the kon amounted to 108000 M⁻¹ s⁻¹ and the t1/2 amounted to 4.9 min. Further, in test [4], the Kd came out at 9 nM, the off-rate constant (koff) was found to be 0.00117 s⁻¹, the kon stood at 132000 M⁻¹ s⁻¹ and the t1/2 was determined as 9.9 min.

B3: Humanized mAb 4M60 (antibody, human IgG1, kappa, V domains shown)
VH: QVQLVQSGSELKKPGASVKVSCKASGNTFTTYGMSWVRQAPGQGLEWMGWINNYSGVSTYADDFKGRFVFSLDTSVSTAYLQISSLKAEDTAVYYCARDYYGSGGWVFDYWGQGTTVTVSS
VL: DVVMTQSPLSLPVTLGQPASISCKSSQSLLDSEGKTYLNWLQQRPGQSPRRLMYLVSKLDSGVPDRFSGSGSGTDFTLKISRVEAEDVGVYYCWQGTHFPRTFGGGTKVEIKR
notes: Humanized variant of moMAb 4E9, Bin 2
In the case of B3, the “Signaling Assay, hMerTK with Gas6” value in test [1] worked out at 8.88 nM. Also, in test [2], the dissociation constant (Kd) was 47.1 nM, the dissociation rate constant (koff) was found to be 0.00249 s⁻¹, the kon came out at 52900 M⁻¹ s⁻¹ and the t1/2 was 4.6 min. In test [3], the Kd is 42.5 nM, the koff amounted to 0.00137 s⁻¹, the on-rate (kon) was 32200 M⁻¹ s⁻¹ and the t1/2 was 8.4 min. In addition, in test [4], the dissociation constant (Kd) is 50.8 nM, the off-rate (koff) turned out to be 0.00134 s⁻¹, the kon was 26400 M⁻¹ s⁻¹ and the t1/2 stood at 8.6 min.

B4: MoMAb 2D9 (antibody, V domains shown)
VH: QVQLKESGPGLVAPSQSLSITCTVSGISLSSFAISWVRQPPGKGLEWLGVIWTGGGTDYNSALKSRLTISKDTSKNQVFLKMNSLQTDDTARYYCASHWYLDVWGTGTTVTVSS
VL: QAVVTQESALTTSPGETVTLTCRSSTGAVSTSNYANWVQEKPDHLFTGLIGGANSRAPGIPARFSGSLIGDKAALTITGAQTEDEAIYFCALWFSNHWVFGGGTKLTVL
notes: Mouse mAb; Bin 2
Turning to B4, the “Signaling Assay, mMerTK with Gas6, pSTAT1 IC50 (nM)” value in test [5] worked out at 2.07 nM. Further, in test [1], the “Inhibition of Efferocytosis IC50” value was 0.528 nM; the “Signaling Assay, hMerTK with Gas6” value is 1.44 nM; the “Signaling Assay, hMerTK without Gas6, pSTAT1 IC50 (nM)” value is greater than 100 nM. In test [6], the Kd is 3.2 nM, the off-rate (koff) amounted to 0.000403 s⁻¹, the kon stood at 126000 M⁻¹ s⁻¹ and the t1/2 was determined as 28.7 min. Besides, in test [7], the dissociation constant (Kd) stood at 12 nM, the dissociation rate constant (koff) was determined as 0.00064 s⁻¹, the association rate constant (kon) turned out to be 53300 M⁻¹ s⁻¹ and the t1/2 stood at 18 min. Further, in test [8], the koff was 0.00064 s⁻¹ and the t1/2 amounted to 18.2 min.

The values are drawn from US20210395392A1 (Bristol-Myers Squibb, published 2021).
